Assays:
[1] = target: wild-type CfaB, mature form, with N-terminal hexahistidine tag (^wtCfaB, (his)6CfaB) (enterotoxigenic Escherichia coli (ETEC)) (UniProt E3PPC4); experiment: pull-down
[2] = target: wild-type CfaB, mature form, with N-terminal hexahistidine tag (^wtCfaB, (his)6CfaB) (enterotoxigenic Escherichia coli (ETEC)) (UniProt E3PPC4)

In the case of “wild-type CfaA with C-terminal Strep-tag (^wtCfaA, CfaA(Strep)) (natural protein)”, the ratio between CfaA and CfaB (densitometry of the pull-down) [1] is reported as 0.6 and the kf, fast-phase rate constant of chaperone-assisted refolding of denatured CfaB [2] is reported as 0.54 s⁻¹.
